This is an account of results in PMC11686114 (Frontiers in Immunology, 2024).

Holding throughout (assay): ELISA; confirmatory monoclonal phage ELISA; antigens peptide alone, peptide-BSA, peptide-biotin; controls PBS, 10% BSA-PBS, PBS-streptavidin; phage dilution factors 1, 3, 9
A general note: In an ELISA, binding on a coated surface is turned into a signal by an enzyme label.

For experiment [1], the target named is T1, TRBV5-1 antigenic peptide No. 1 (…) conjugated to BSA (human).
T1 sequence (peptide): TQTPRYLIKTRGQQ

Experiment [2] has as its target T2, TRBV5-1 antigenic peptide No. 1 (TQTPRYLIKTRGQQ), biotinylated (Homo sapiens, also: biotinylated (site not given here)).
T2 construct: short form of antigenic peptide No. 1 of the TRBV5-1 segment of the human TCR beta chain; probably held on streptavidin, since its control is PBS-streptavidin (surmise); also called Ag3; peptide-biotin; source: synthetic peptide (Proteogenix)
T2 chain: TQTPRYLIKTRGQQ
The following applies: one partner purified.

Experiment [3] has as its target T3, TRBV5-1 antigenic peptide No. 1 (TQTPRYLIKTRGQQ), peptide alone (Homo sapiens).
T3 construct: short form of antigenic peptide No. 1 of the TRBV5-1 segment of the human TCR beta chain; also called Ag1; Peptide N. 1; source: synthetic peptide (Proteogenix)
T3 chain: TQTPRYLIKTRGQQ
As to conditions: one partner purified.

Ends that are not written are not given here.

B1: scFv clone A12 (scFv, V domains shown)
VH: QVQLQQWGAGLLKPSETLSLTCAVYGGSFSGYYWSWIRQPPGKGLEWIGEINHSGSTNYNPSLKSRVTISVDTSKNQFSLKLSSVTAADTAVYYCARWDLDYWGQGTLVTVSS
VL: EIVLTQSPLSLPVTLGQSASISCRSSQSLVHSDGNTYLNWFQQRPGQSPRRLIYQVSKRDSGVPDRFSGSGSGTDFTLRISRVEAEDVGFYYCMQGTHWPPITFGQGTRLEIK
notes: tested as phage clone in the confirmatory monoclonal ELISA; lead scFv from which the r-hIgG1 mAb was made; also called lead scFv; source: phage display clone from the human naive scFv library LiAb-SFMAX (Proteogenix), amplified in …
For B1, the results for the ELISA signal at phage dilution factor 1 in experiment [1], in experiment [2] and in experiment [3] were 2.93, 2.79 and 0.99, respectively. Besides, the ELISA signal at phage dilution factor 3 in experiment [1] was found to be 1.82; in experiment [2] it was 1.99; in experiment [3], 0.33. Moreover, the ELISA signal at phage dilution factor 9 in experiment [1] stood at 0.78; in experiment [2], 1.22; in experiment [3] it was 0.12.

B2: scFv clone C10 (scFv, V domains shown)
VH: EVQLVQSGAEVKKPGSSVKVSCKASGGTFSSYAISWVRQAPGQGLEWMGGIIPIFGTANYAQKFQGRVTITADKSTSTAYMELSSLRSEDTAVYYCAREPLRGYSGYDFYYYGMDVWGQGTMVTVSS
VL: SYELTQPHSVSGSPGETVTISCAGSGGSIASNYVQWYQQRPGSAPTTLIYEDKVRPSGVPDRFSGSIDYSSDSASLTISGLKTEDEADYYCQSADSTSTYVFGTGTKVTVL
notes: tested as phage clone in the confirmatory monoclonal ELISA; source: phage display clone from the human naive scFv library LiAb-SFMAX (Proteogenix), amplified in E. coli TG1
Turning to B2, the values for the ELISA signal at phage dilution factor 1 in experiment [1], in experiment [2] and in experiment [3] were 3.83, 2.11 and 1.19, respectively. Further, the results for the ELISA signal at phage dilution factor 3 in experiment [1], in experiment [2] and in experiment [3] were 3.55, 1.72 and 0.75, respectively. The ELISA signal at phage dilution factor 9 in experiment [1] came out at 3.04; in experiment [2], 1.62; in experiment [3], 0.42.

B3: scFv clone A2 (scFv, V domains shown)
VH: QVQLQQSGPGLVKPSQTLSLTCAISGDSVSSNSAAWNWIRQSPSRGLEWLGRTYYRSKWYNDYAVSVKSRITINPDTSKNQFSLQLNSVTPEDTAVYYCARDQAAAEVYFDYWGQGTLVTVSS
VL: NFMLTQPHSVSESPGKTVTISCTRSSGSIASNYLQWYQQRPGSAPTTVIYEDNQRPSGVPDRFSGSIDSSSNSASLTISGLKTEDEADYYCQSYDNRNHWVFGGGTQLTVL
notes: as for B2
For B3, in experiment [1], the ELISA signal at phage dilution factor 1 turned out to be 4.3, the ELISA signal at phage dilution factor 3 was 4.04 and the ELISA signal at phage dilution factor 9 stood at 3.84. In experiment [2], the “ELISA signal at phage dilution factor 1” value worked out at 2.46, the “ELISA signal at phage dilution factor 3” value turned out to be 1.85 and the “ELISA signal at phage dilution factor 9” value was 1.28. In addition, in experiment [3], the “ELISA signal at phage dilution factor 1” value was found to be 0.95, the “ELISA signal at phage dilution factor 3” value amounted to 0.91 and the “ELISA signal at phage dilution factor 9” value was determined as 0.35.

B4: scFv clone A5 (scFv, V domains shown)
VH: QVQLQQSGPGLVKPSQTLSLTCAISGDSVSSNSAAWNWIRQSPSRGLEWLGRTYYRSKWYNDYAVSVKSRITINPDTSKNQFSLQLNSVTPEDTAVYYCARDQAAAEVYFDYWGQGTLVTVSS
VL: NFMLTQPHSVSESPGKTVTISCTRSSGSIASNYVQWYQQRPGSSPTTVIYEDNQRPSGVPDRFSGSIDSSSNSASLTISGLKTEDEADYYCQSYDSSNHWVFGGGTKVTVL
notes: as printed identical to the VH of A2; tested as phage clone in the confirmatory monoclonal ELISA; source: phage display clone from the human naive scFv library LiAb-SFMAX (Proteogenix), amplified in E. coli TG1
In experiment [1], B4 gave an ELISA signal at phage dilution factor 1 of 4.09, an ELISA signal at phage dilution factor 3 of 3.8 and an ELISA signal at phage dilution factor 9 of 3.74. Besides, in experiment [2], the “ELISA signal at phage dilution factor 1” value amounted to 2.73, the “ELISA signal at phage dilution factor 3” value amounted to 2.53 and the “ELISA signal at phage dilution factor 9” value was 1.55. Further, in experiment [3], the “ELISA signal at phage dilution factor 1” value was determined as 0.88, the “ELISA signal at phage dilution factor 3” value was determined as 0.37 and the “ELISA signal at phage dilution factor 9” value is 0.11.

B5: scFv clone A8 (scFv, V domains shown)
VH: QVQLVQSGPEMKKAGASVRVSCKGSGYTFSSFDINWVRQVPGQGLEWMGWMNPDTGNTGLAQKFQGRVTMTRDTSIRTAYMELRSLRSDDTAVYYCARDAPRNGRGMDVWGQGTMVTVSS
VL: SYELTQPPSVSVSPGQTARITCSGDALPKQYAYWYQQKPGQAPVLVIYQDTKRPSGIPERFSGSSSGTTVTLTISGVQAEDEADYYCQSADSSGTYPVFGGGTKLTVL
notes: as for B2
In experiment [1], B5 gave an ELISA signal at phage dilution factor 1 of 4.58, an ELISA signal at phage dilution factor 3 of 4.2 and an ELISA signal at phage dilution factor 9 of 4.14. Further, in experiment [2], the “ELISA signal at phage dilution factor 1” value was 2.09, the “ELISA signal at phage dilution factor 3” value worked out at 2.06 and the “ELISA signal at phage dilution factor 9” value came to 2. For the same molecule, in experiment [3], the “ELISA signal at phage dilution factor 1” value was found to be 0.94, the “ELISA signal at phage dilution factor 3” value was determined as 0.37 and the “ELISA signal at phage dilution factor 9” value turned out to be 0.14.

B6: scFv clone D5 (scFv, V domains shown)
VH: QVQLVQSGAEVKKPGASVKVSCKPSGYYFNGYDITWVRQAIGQGLEWMGWMNPNSGNRDYAHQFQGRLTMTWDTSLSTAYLELNNLQSDDTAIYYCARERVSSGLDFWGQGTLVTVSS
VL: SYELTQPPSVSVSPGQTARITCSGDALPKQYAYWYQQKPGQAPVLLIYKDSERPSGIPERFSGSSSGTTVTLTISGVQAEDEADYYCQSADSSGTYVVFGGGTQLTVL
notes: as for B2
Take B6: in experiment [1], the ELISA signal at phage dilution factor 1 was 4.03, the ELISA signal at phage dilution factor 3 was determined as 3.56 and the ELISA signal at phage dilution factor 9 is 3.5. In experiment [2], the “ELISA signal at phage dilution factor 1” value was determined as 2.38, the “ELISA signal at phage dilution factor 3” value was determined as 1.9 and the “ELISA signal at phage dilution factor 9” value is 1.67. Besides, in experiment [3], the “ELISA signal at phage dilution factor 1” value stood at 0.75, the “ELISA signal at phage dilution factor 3” value is 0.32 and the “ELISA signal at phage dilution factor 9” value came out at 0.13.
